The labels stand for the following.
B1: wild-type integrin αVβ3 on cells (K562-αVβ3, M21, HEK293T) (receptor)
chain 1: FNLDVDSPAEYSGPEGSYFGFAVDFFVPSASSRMFLLVGAPKANTTQPGIVEGGQVLKCDWSSTRRCQPIEFDATGNRDYAKDDPLEFKSHQWFGASVRSKQDKILACAPLYHWRTEMKQEREPVGTCFLQDGTKTVEYAPCRSQDIDADGQGFCQGGFSIDFTKADRVLLGGPGSFYWQGQLISDQVAEIVSKYDPNVYSIKYNNQLATRTAQAIFDDSYLGYSVAVGDFNGDGIDDFVSGVPRAARTLGMVYIYDGKNMSSLYNFTGEQMAAYFGFSVAATDINGDDYADVFIGAPLFMDRGSDGKLQEVGQVSVSLQRASGDFQTTKLNGFEVFARFGSAIAPLGDLDQDGFNDIAIAAPYGGEDKKGIVYIFNGRSTGLNAVPSQILEGQWAARSMPPSFGYSMKGATDIDKNGYPDLIVGAFGVDRAILYRARPVITVNAGLEVYPSILNQDNKTCSLPGTALKVSCFNVRFCLKADGKGVLPRKLNFQVELLLDKLKQKGAIRRALFLYSRSPSHSKNMTISRGGLMQCEELIAYLRDESEFRDKLTPITIFMEYRLDYRTAADTTGLQPILNQFTPANISRQAHILLDCGEDNVCKPKLEVSVDSDQKKIYIGDDNPLTLIVKAQNQGEGAYEAELIVSIPLQADFIGVVRNNEALARLSCAFKTENQTRQVVCDLGNPMKAGTQLLAGLRFSVHQQSEMDTSVKFDLQIQSSNLFDKVSPVVSHKVDLAVLAAVEIRGVSSPDHIFLPIPNWEHKENPETEEDVGPVVQHIYELRNNGPSSFSKAMLHLQWPYKYNNNTLLYILHYDIDGPMNCTSDMEINPLRIKISSLQTTEKNDTVAGQGERDHLITKRDLALSEGDIHTLGCGVAQCLKIVCQVGRLDRGKSAILYVKSLLWTETFMNKENQNHSYSLKSSASFNVIEFPYKNLPIEDITNSTLVTTNVTWGIQPAPMPVPVWVIILAVLAGLLLLAVLVFVMYRMGFFKRVRPPQEEQEREQLQPHENGEGNSET
chain 2: GPNICTTRGVSSCQQCLAVSPMCAWCSDEALPLGSPRCDLKENLLKDNCAPESIEFPVSEARVLEDRPLSDKGSGDSSQVTQVSPQRIALRLRPDDSKNFSIQVRQVEDYPVDIYYLMDLSYSMKDDLWSIQNLGTKLATQMRKLTSNLRIGFGAFVDKPVSPYMYISPPEALENPCYDMKTTCLPMFGYKHVLTLTDQVTRFNEEVKKQSVSRNRDAPEGGFDAIMQATVCDEKIGWRNDASHLLVFTTDAKTHIALDGRLAGIVQPNDGQCHVGSDNHYSASTTMDYPSLGLMTEKLSQKNINLIFAVTENVVNLYQNYSELIPGTTVGVLSMDSSNVLQLIVDAYGKIRSKVELEVRDLPEELSLSFNATCLNNEVIPGLKSCMGLKIGDTVSFSIEAKVRGCPQEKEKSFTIKPVGFKDSLIVQVTFDCDCACQAQAEPNSHRCNNGNGTFECGVCRCGPGWLGSQCECSEEDYRPSQQDECSPREGQPVCSQRGECLCGQCVCHSSDFGKITGKYCECDDFSCVRYKGEMCSGHGQCSCGDCLCDSDWTGYYCNCTTRTDTCMSSNGLLCSGRGKCECGSCVCIQPGSYGDTCEKCPTCPDACTFKKECVECKKFDREPYMTENTCNRYCRDEIESVKELKDTGKDAVNCTYKNEDDCVVRFQYYEDSSGKSILYVVEEPECPKGPDILVVLLSVMGAILLIGLAALLIWKLLITIHDRKEFAKFEEERARAKWDTANNPLYKEATSTFTNITYRGT
notes: also called WT αVβ3; cellular αVβ3
B2: WT knottin 2.5F-Fc fusion protein (rEETI 2.5F) (Fc fusion)
chain: GCPRPRGDNPPLTCSQDSDCLAGCVCGPNGFCG
modifications: ends and bridges not checked; also: C-terminal His tag on knottin, fused at C-terminus to human IgG Fc, Fc fusion dimer
notes: The order of His tag and Fc is read from 'c-terminal his-tagged ... fused at the c-terminus to the Fc fragment'; also called WT 2.5F; WT rEETI 2.5F; not shown: C-terminal His tag of the knottin; Fc fragment of human IgG
B3: modified knottin 2.5F M, Fc fusion (Fc fusion)
chain: B2 chain with N9W, P10N, P11E, L12G
modifications: ends and bridges not checked; also: C-terminal His tag, number of His and linker not given here, fused at C-terminus to Fc fragment of human IgG
notes: Made by site-directed mutagenesis of the WT rEETI 2.5F construct; tested as culture supernatant; not shown: C-terminal His tag of the knottin; Fc fragment of human IgG
B4: modified knottin 2.5F M1, Fc fusion (Fc fusion)
chain: B2 chain with N9W, P10N
modifications: ends and bridges not checked; also: C-terminal His tag, number of His and linker not given here, fused at C-terminus to Fc fragment of human IgG
notes: as for B3
B5: hFN10/B (designed binder)
chain: SDVPRDLEVVAATPTSLLISWDAPAVTVRYYRITYGETGGNSPVQEFTVPGSKSTATISGLKPGVDYTITVYAVIARGDWNDGSKPISINY
notes: hFN10 with the three residues flanking RGDWN changed to match barbourin; His tag as for hFN10

Experiment [1] deals with T1, wild-type 10th type-III RGD-domain of human fibronectin (wtFN10) (human, UniProt P02751 1539-1631).
T1 construct: Expressed in bacteria with an N-terminal His tag (S1417-T1509) and a thrombin cleavage site; also called wild-type FN10
Briefly: M21 cells, unlabeled FN10, AP5 read-out by flow cytometry. The protocol:
(§1) K562-αVβ3 cells, transiently transfected HEK293T or αVβ3⁺ M21 cells (0.5×10⁶ in 100 μl WB) were incubated in the absence or presence of unlabeled soluble FN10 (5 μg) in Ca²⁺/Mg²⁺ or in Mn²⁺ (30 min; at 25° C.). Alexa647-labeled AP5 Fab (plus Alexa488-labeled AP3, when HEK293T cells were used), unlabeled anti-LIBS-1 (all to 10 μg/ml) or LIBS-6 ascites (to 1:50 dilution) were added, and the cells incubated for an additional 30 min before washing. APC-labeled goat anti-mouse Fc-specific antibody was added to anti-LIBS-1- or anti-LIBS-6-bound M21 cells, cells were incubated for an additional 30 min at 4° C. then washed, resuspended, fixed in 4% paraformaldehyde and analyzed by flow cytometry. LIBS epitope expression was measured and expressed as MFI (in case of K562-αVβ3 or M21 cells) and normalized (in case of HEK293T cells) by dividing its MFI by the MFI for Alexa488-labeled AP3, and multiplied by 100.
For orientation: A flow cytometer gives signals particle by particle.

Experiment [2] concerns the target B1. Nature of the experiment: flow cytometry on K562-αVβ3, culture supernatant, fluoresceinated anti-human Fc mAb, Ca2+/Mg2+. As to the method: (§2) Binding of soluble knottin dimers to αVβ3-K562 cells was expressed as mean fluorescence intensity (MFI), as determined using FlowJo software. […] Alexa647-labeled mAb AP5 Fab (10 μg/ml) was added, and cells incubated for an additional 30 min before washing. APC-labeled goat anti-mouse Fc-specific antibody was added to anti-LIBS-1- or anti-LIBS-6-bound M21 cells for an additional 30 min at 4° C. Cells were then washed, resuspended, fixed in 4% paraformaldehyde and analyzed by flow cytometry. AP5 epitope expression was measured and expressed as MFI.
as §2, with “Cells were washed, resuspended, fixed in 4% paraformaldehyde, and analyzed using FACSCalibur or BD-LSRII flow cytometers (BD Biosciences). Binding” for “Binding”, “Fe-specific” for “Fc-specific”

The target in experiment [3] is B1. Briefly: M21 cells, unlabeled FN10, AP5 read-out by flow cytometry. The protocol: as §1

Numbering of substitutions follows the chain as printed. No end group written: not given here.

In the case of B1, the binding result in experiment [1] is “binds”.

For B2, the binding result in experiment [2] is recorded as “binds”.

For the molecule B3, in experiment [2], the binding result is reported as “binds”.

Turning to B4, in experiment [2], the binding result is on record as “binds”.

Consider B5, for which, in experiment [3], the binding result was “binds”.

Values taken from patent US20170044236A1 (GENERAL HOSPITAL, published 2017).
